From article PMC10801580 (2024)

Experiments:
[1] = target: T1, WT RBD-6xHis (receptor-binding domain of the SARS-CoV-2 spike protein) (SARS-CoV-2, UniProt P0DTC2); test: BLI
[2] = target: T1, WT RBD-6xHis (receptor-binding domain …); test: ELISA

Row | Binder | Kd [1] [nM] | EC50 [2] [ng/mL]
1 | humanized 9-8F2-B11, VH3VL3 combination (antibody, V domains shown) VH: QVQLVQSGAEVKKPGASVKVSCKASGFNIKETYVHWVRQAPGQGLEWMGRIDPAIGDSEYAQKFQGRVTMTRDTSISTAYMELSRLRSDDTAVYYCARTWGPFFDFWGQGTLVTVSS VL: DIVMTQTPLSLSVTPGQPASISCKSSQSLLHSHGNTFLHWYLQKPGQSPQVLIYKVSSRFSGVPDRFSGSGSGTDFTLKISRVEAEDVGVYYCSQSTHVPYTFGQGTKLEIK | 2.26 | 
2 | murine 9-8F2-B11 (antibody, V domains shown) VH: EVQLQQSGAELVKPGASVKLSCTASGFNIKETYVHWVKQRPEQGLEWIGRIDHAIGDSEYDPKFQGKATVTADTSSNTAYLQLSRLTSEDTAVYYCARTWGPFFDFWGQGTTVTVSS VL: DVVMTQTPLSLPVSLGDQASISCRSSQSLVHSHGNTFLHWYLQKPGQSPKVLIYKVSSRFSGVPDRFSGSGAGTDFTLKISRVEAEDLGVYFCSQSTHVPYTFGGGTKLEIK | 0.913 | 0.0137
